Consider two proteins from ChEMBL document CHEMBL1649220, “New variant of CTX-M-type extended-spectrum beta-lactamases, CTX-M-71, with a Gly238Cys substitution in a Klebsiella pneumoniae isolate from Bulgaria” (2009).

Residue numbers refer to the chain shown, from its start.

Substrate in data set [1]: CC(C)(O/N=C(\C(=O)N[C@@H]1C(=O)N2C(C(=O)[O-])=C(C[n+]3ccccc3)CS[C@H]12)c1csc(N)n1)C(=O)O
The data set is described as follows: (§1) Activity of Klebsiella pneumoniae AH27 CTX-M-15 beta-lactamase.

Substrate in data set [2]: CC1(C)S[C@@H]2[C@H](NC(=O)Cc3ccccc3)C(=O)N2[C@H]1C(=O)O
The data set is described as §1.

Substrate in data set [3]: CO/N=C(\C(=O)N[C@@H]1C(=O)N2C(C(=O)O)=C(COC(C)=O)CS[C@H]12)c1csc(N)n1
The data set is described as §1.

Substrate in data set [4]: CO/N=C(\C(=O)N[C@@H]1C(=O)N2C(C(=O)O)=C(COC(N)=O)CS[C@H]12)c1ccco1
The description is as §1.

Substrate in data set [5]: C[C@@H](O)[C@H]1C(=O)N2C(C(=O)O)=C(SCCNC=N)C[C@H]12
Described as §1.

Substrate in data set [6]: C[C@@H](O)[C@H]1C(=O)N2C(C(=O)O)=C(S[C@@H]3CN[C@H](C(=O)N(C)C)C3)[C@H](C)[C@H]12
Described as §1.

Substrate in data set [7]: C[C@@H](O)[C@H]1C(=O)N2C(C(=O)O)=C(S[C@@H]3CN[C@H](CNS(N)(=O)=O)C3)[C@H](C)[C@H]12
The data set is described as §1.

Substrate in data set [8]: O=C(Cc1cccs1)N[C@@H]1C(=O)N2C(C(=O)[O-])=C(C[n+]3ccccc3)CS[C@H]12
Described as §1.

Substrate in data set [9]: CC(C)(O/N=C(\C(=O)N[C@@H]1C(=O)N2C(C(=O)[O-])=C(C[n+]3ccccc3)CS[C@H]12)c1csc(N)n1)C(=O)O
The data set is described as follows: (§2) Activity of Klebsiella pneumoniae AH24-270 CTX-M-71 beta-lactamase.

Substrate in data set [10]: CC1(C)S[C@@H]2[C@H](NC(=O)Cc3ccccc3)C(=O)N2[C@H]1C(=O)O
Described as §2.

Substrate in data set [11]: CC1(C)S[C@@H]2[C@H](NC(=O)[C@H](N)c3ccc(O)cc3)C(=O)N2[C@H]1C(=O)O
Described as §2.

Substrate in data set [12]: CCN1CCN(C(=O)N[C@@H](C(=O)N[C@@H]2C(=O)N3[C@@H]2SC(C)(C)[C@@H]3C(=O)O)c2ccccc2)C(=O)C1=O
Described as §2.

Substrate in data set [13]: CO/N=C(\C(=O)N[C@@H]1C(=O)N2C(C(=O)O)=C(COC(C)=O)CS[C@H]12)c1csc(N)n1
The data set is described as §2.

Substrate in data set [14]: CO/N=C(\C(=O)N[C@@H]1C(=O)N2C(C(=O)O)=C(COC(N)=O)CS[C@H]12)c1ccco1
Described as §2.

Substrate in data set [15]: C[C@@H](O)[C@H]1C(=O)N2C(C(=O)O)=C(SCCNC=N)C[C@H]12
The data set is described as §2.

Substrate in data set [16]: C[C@@H](O)[C@H]1C(=O)N2C(C(=O)O)=C(S[C@@H]3CN[C@H](C(=O)N(C)C)C3)[C@H](C)[C@H]12
Described as §2.

Substrate in data set [17]: C[C@@H](O)[C@H]1C(=O)N2C(C(=O)O)=C(S[C@@H]3CN[C@H](CNS(N)(=O)=O)C3)[C@H](C)[C@H]12
The description is as §2.

Substrate in data set [18]: C[C@@H](O)[C@H]1C(=O)N2C(C(=O)O)=C([C@H]3CCCO3)S[C@H]12
The data set is described as §2.

Substrate in data set [19]: C[C@H]1[C@H](NC(=O)/C(=N\OC(C)(C)C(=O)O)c2csc(N)n2)C(=O)N1S(=O)(=O)O
The description is as §2.

Substrate in data set [20]: O=C(Cc1cccs1)N[C@@H]1C(=O)N2C(C(=O)[O-])=C(C[n+]3ccccc3)CS[C@H]12
Described as §2.

B1: Beta-lactamase AH27 CTX-M-15 (Klebsiella pneumoniae), Q2PUH3 (protein)
chain: MVKKSLRQFTLMATATVTLLLGSVPLYAQTADVQQKLAELERQSGGRLGVALINTADNSQILYRADERFAMCSTSKVMAAAAVLKKSESEPNLLNQRVEIKKSDLVNYNPIAEKHVNGTMSLAELSAAALQYSDNVAMNKLIAHVGGPASVTAFARQLGDETFRLDRTEPTLNTAIPGDPRDTTSPRAMAQTLRNLTLGKALGDSQRAQLVTWMKGNTTGAASIQAGLPASWVVGDKTGSGGYGTTNDIAVIWPKDRAPLILVTYFTQPQPKAESRRDVLASAAKIVTDGL
With B1, the Km (usually the substrate concentration at which the rate is half of its maximum) in data set [1] was 236 µM; in data set [2] it was 8.7 µM; in data set [3] it was 26 µM; in data set [4], 180 µM; in data set [8], 39 µM. The kcat – broadly, the maximal rate divided by the concentration of active sites – in data set [1] was 4.4 s⁻¹; in data set [2], 47 s⁻¹; in data set [3], 176 s⁻¹; in data set [4], 45 s⁻¹; in data set [5], < 0.17 s⁻¹; in [6], < 0.004 s⁻¹. Further, the kcat in data set [7] is < 0.002 s⁻¹; in data set [8], 188 s⁻¹.

B2: Extended spectrum beta-lactamase CTX-M-71 (Klebsiella pneumoniae), C8YUV9 (protein)
chain: B1 chain with G241C
Turning to B2, the Km in data set [9] amounted to 180 µM; in [10] it was 4.9 µM; in [11] it was 5.2 µM; in data set [12], 3.2 µM; in data set [13], 130 µM; in data set [14], 85 µM. Also, the Km is 10 µM in data set [19] and 18 µM in data set [20]. Moreover, the kcat was 0.69 s⁻¹ in data set [9]; 58 s⁻¹ in data set [10]; 49 s⁻¹ in data set [11]; 27 s⁻¹ in [12]; 65 s⁻¹ in [13]; 8.8 s⁻¹ in [14]. Further, the kcat in [15] was < 0.07 s⁻¹; in data set [16], < 0.07 s⁻¹; in [17], < 0.05 s⁻¹; in data set [18], < 0.46 s⁻¹; in data set [19], 0.84 s⁻¹; in data set [20], 68 s⁻¹.
